This passage reports protein stability index results from the supplement of paper PMC10567573.

± gives the standard deviation.

The data set is described as follows: protein stability index of a GFP-peptide fusion (GPS, HEK-293T) (PSI 1-6); higher = more stable. The note with it: c terminus: a fixed tail appended.
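Further: 24-mer peptide tiles fused after GFP, lentivirally expressed, FACS-sorted into six equal bins by GFP/DsRed ratio, decoded by Illumina sequencing, PSI is the read-weighted mean bin number.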

For GRPSMVWLSANPCPHCGDRTFYDP [PRAME], the protein stability index (treatment: DMSO) was determined as 2.24 ± 0.26 and the protein stability index (treatment: MLN4924 1 uM, 8 h) is 2.33 ± 0.41.
The corresponding values for GRWVNENCRLQSPYFSPSASFHHK [CBY2] are 2.89 ± 0.19 and 2.86 ± 0.31.
The matching figures for GSRISVSRSTSFRGGMGSGGLATG [KRT18]: 3.65 ± 0.19 and 4.04 ± 0.69.
The matching figures for GSVYFWATPRQVPSLQHLCRMSIR [WSB1]: 3.05 ± 0.2 and 2.7 ± 0.043.
On to GVIQSVIGWKTVRMYPFQIHSIAL [CDS2], for which the protein stability index by setting is: (treatment: DMSO) 2.81 ± 0.34; (treatment: MLN4924 1 uM, 8 h) 2.94 ± 0.35.
As to GVMSAYAMCVRYDGVEVDDSYCDA [ADAMTSL2], the protein stability index (treatment: DMSO) came out at 3.05 ± 0.15 and the protein stability index (treatment: MLN4924 1 uM, 8 h) is 2.91 ± 0.23.
The corresponding values for GYPPFCSETPQETYRKVMNWKETL [STK38L] are 2.88 ± 0.29 and 3.05 ± 0.37.
The corresponding values for GYTFGQDISETFNHANGLTLVSRA [PPP2CA] are 3.26 ± 0.3 and 3.19 ± 0.28.
The corresponding values for HASGDASYSAGDSGDAAAQPAFTG [EPB41L3] are 5.32 ± 0.21 and 5.21 ± 0.21.
On to HAVSTCHFCVDDTKLLSGSYDCTV [WDR88], for which the protein stability index reads like this: (treatment: DMSO) 2.46 ± 0.26; (treatment: MLN4924 1 uM, 8 h) 2.44 ± 0.33.
For HDIVRFLVQLDDYRFASAGDDGIV [WDR41], the protein stability index (treatment: DMSO) stood at 2.21 ± 0.061 and the protein stability index (treatment: MLN4924 1 uM, 8 h) amounted to 2.2 ± 0.25.
The corresponding values for HDRNMDWVSTQLQATCNVHKSAFN [FADS1] are 3.22 ± 0.29 and 3.46 ± 0.2.
The corresponding values for HELGHVFNMLHDNSKPCISLNGPL [ADAMTS4] are 3 ± 0.49 and 2.93 ± 0.28.
On to HFAEEERSKYDYLMILRRVVNEST [TENT5C], for which the protein stability index is, setting by setting: (treatment: DMSO) 2.55 ± 0.26; (treatment: MLN4924 1 uM, 8 h) 2.86 ± 0.37.
The matching figures for HGHLILHSMHKYQPRIHLVRAAQL [TBX6]: 2.1 ± 0.29 and 2.07 ± 0.27.
The matching figures for HGNQSAGEDQAFGDWLLTANGSEI [SLC22A15]: 4.56 ± 0.34 and 4.67 ± 0.18.
The corresponding values for HHFNSSHLEIDDMYTPAYGDFDFD [MYORG] are 4.34 ± 0.11 and 4.23 ± 0.24.
Turning to HHGGDYKHWREWGSHAQTSQIQSI [CRYBA1], the protein stability index was 3.1 ± 0.14 (treatment: DMSO) and 3.19 ± 0.26 (treatment: MLN4924 1 uM, 8 h).
The corresponding values for HLEDWLEKRAKRLSSAPSSRAEPI [ZMAT5] are 4.26 ± 0.78 and 3.58 ± 0.081.
The matching figures for HMVRESKIMEAESQKATRECEKSA [FAN1]: 5.29 ± 0.3 and 5.24 ± 0.14.
The corresponding values for HPDSWRAYPFYWAWLPQAKVPFSQ [PI4K2A] are 2.5 ± 0.37 and 2.02 ± 0.94.
Regarding HPVFYQGTYSQALNDAKRELRFLL [FAF2], the protein stability index reads like this: (treatment: DMSO) 2.26 ± 0.36; (treatment: MLN4924 1 uM, 8 h) 2.15 ± 0.14.
With HRERVAMHYQMSVTLKYEIKKLIY [JAGN1], the protein stability index was 2.71 ± 0.49 (treatment: DMSO) and 2.92 ± 0.45 (treatment: MLN4924 1 uM, 8 h).
As to HRGLLTMQLKSPMPSSTTQKDSYQ [SPAG8], the protein stability index came out at 3.87 ± 0.25 (treatment: DMSO) and 4 ± 0.21 (treatment: MLN4924 1 uM, 8 h).
The corresponding values for HRQSFGTNSDVLAQQFALMAPLLF [DCAF4] are 2.31 ± 0.28 and 2.36 ± 0.27.
The matching figures for HRRELESSGAGSSPPAAPCPPPPG [ZBED3]: 5.12 ± 0.29 and 5.24 ± 0.16.
The corresponding values for HTEDFQKEEGTVNGASWHTVAGSL [CPXM2] are 4.63 ± 0.069 and 4.76 ± 0.38.
HTHRAHTVVPLDDATQEYKEKLQK [TRIM39]: the protein stability index reads like this: (treatment: DMSO) 5.39 ± 0.2; (treatment: MLN4924 1 uM, 8 h) 5.3 ± 0.35.
Turning to HTTLQCLAARVIVNHRIYYKGHIP [FEM1C], the protein stability index runs as follows: (treatment: DMSO) 2.43 ± 0.17; (treatment: MLN4924 1 uM, 8 h) 2.43 ± 0.25.
